Experiment: Solubility of the hydrophobic protein and its fragments
Type: physicochemical

B1: R16 protein: synthetic combination protein formed from silk proteins and resilins, polypeptide sequence SEQ ID NO: 4 (protein)
chain: MASMTGGQQMGRGSMGPGSSAAAAAAAASGPGQGQGQGQGQGGRPSDTYGPGSSAAAAAAAASGPGQGQGQGQGQGGRPSDTYGPGSSAAAAAAAASGPGQGQGQGQGQGGRPSDTYGPGSSAAAAAAAASGPGQGQGQGQGQGGRPSDTYGPGSSAAAAAAAASGPGQGQGQGQGQGGRPSDTYGPGSSAAAAAAAASGPGQGQGQGQGQGGRPSDTYGPGSSAAAAAAAASGPGQGQGQGQGQGGRPSDTYGPGSSAAAAAAAASGPGQGQGQGQGQGGRPSDTYGPGSSAAAAAAAASGPGQGQGQGQGQGGRPSDTYGPGSSAAAAAAAASGPGQGQGQGQGQGGRPSDTYGPGSSAAAAAAAASGPGQGQGQGQGQGGRPSDTYGPGSSAAAAAAAASGPGQGQGQGQGQGGRPSDTYGPGSSAAAAAAAASGPGQGQGQGQGQGGRPSDTYGPGSSAAAAAAAASGPGQGQGQGQGQGGRPSDTYGPGSSAAAAAAAASGPGQGQGQGQGQGGRPSDTYGPGSSAAAAAAAASGPGQGQGQGQGQGGRPSDTYG
solubility in water: about 1%
